Laboratory results as given in patent US6518054B1, “Metallo-endopeptidases” (Rijksuniverstteit Te Groningen, priority 1997, dated 2003).

How the values were obtained:
[1] = format: physicochemical
Procedure: Stabilities of TLPs were determined at different temperatures. Shown are the first-order inactivation curves for TLP-ste incubated at 80° C. (Δ) and 90° C. (+), thermolysin at 90° C. (Δ), and the 8-fold mutant at 100° C. (●), respectively. […] Samples, taken at the various time points, were quickly cooled on ice (15 s) and transferred to 50° C. to prevent cold denaturation. Residual activity was determined using casein (0.8%) as a substrate in 50 mM TrisHCl (pH 7.5), 5 mM CaCl2 as described previously (Eijsink, V. G. H., Veltman, O. R., Aukema, W., Vriend, G. & Venema, G. Nature Struct. Biol. 2, 374-379 (1995)).

casein = test: Hydrolysis of 10% (w/v) casein compared with commercial enzyme preparations; format: biochemical; conditions: casein 10% w/v
Source text: (§1) In industrial applications enzymes are used for the hydrolysis of protein preparations derived from different sources. Here we show the results of a comparative study in which the rate and quality of hydrolysis of casein and yeast protein preparations by the 8-fold mutated TLP-ste variant was compared with that obtained by the hydrolysis using 3 different enzyme preparations that are used for these purposes in industry. The hydrolysis conditions were chosen such that they were optimal for each of the enzyme preparation under study. The hydrolysis products were separated in an acid-soluble and a not acid-soluble fraction. The amount of acid-soluble protein material formed upon hydrolysis was determined by means of measuring the absorbance at 275 nm, whereas the composition of the acid-insoluble hydrolysis products was studied using SDS-PAGE.
(§2) Substrate (10% w/v of casein or yeast protein preparation) was incubated in 50 mM Tris-MES, 5 mM CaCl2, pH 6.5 at 50° C. (Enzyme I, Favourzyme™ 1000L); 50 mM Tris-MES, 5 mM CaCl2, pH 6.0 at 60° C. (Enzyme II, BioProtease N100L); 50 mM Tris-MES, 5 mM CaCl2, pH 8.0 at 60° C. […] The amount of acid-soluble protein released by hydrolysis was determined by measuring the absorbance of the samples at 275 nm. The acid precipitated proteins were redisolved in 6 M urea and subsequently analysed by SDS-PAGE (15% running gel).

[2] = Effect of denaturing agents on protease activity (FaGLa, 50° C.); format: biochemical
Procedure: Protease activities were determined in 50 mM MOPS (pH 7.0), 5 mM CaCl2, 50 mM NaCl, 0.01% Triton X-100, 0.5% isopropanol, using 100 μM FaGLa (3-(-2-furylacryloyl)-L-glycyl-L-leucine amide) as a substrate at 50° C. Enzymes and denaturing agents were preincubated in the reaction mixture at 50° C. for 15 minutes prior to the addition of the substrate. The reaction was followed by measuring the change in absorbance at 345 nm. […] Activities are expressed as percentage of the activity in the absence of denaturant.

β-Casein = test: Proteolytic (cleavage) specificity on β-casein, reversed phase peptide pattern; format: biochemical; conditions: moderate and high temperatures (60° C. and 100° C.)
Procedure: FIG. 3. Typical proteolytic specificity of TLP-ste and the 8-fold mutant β-Casein (1 mg/ml) was incubated with TLP-ste or the 8-fold mutant at a molar ratio of 1000:1 for 1 hour at 60° C. and 100° C., respectively. Under these conditions β-casein behaves as a non-compact and largely flexible structure. The peptides resulting from hydrolysis were derivatized with dansyl-chloride. The proteolytic products were separated by loading a sample corresponding to 50 μg β-casein on a reversed phase column (RP-304, Bio-Rad Laboratories, Watford, Herts., UK). The mobile phase used was 50 mM NaAc, pH 5.2. Peptides were eluted with a linear gradient from 0-60% acetonitrile at a flow rate of 1 ml/min. Absorption of the eluting peptides was monitored at 254 nm.

[3] = tested on: yeast protein preparation; test: Hydrolysis of 10% (w/v) yeast proteins compared with commercial enzyme preparations; format: biochemical; conditions: yeast proteins 10% w/v
Source text: as §1, §2

[4] = tested on: α-amylase from Bacillus licheniformis; test: Hydrolysis of protease resistant α-amylase (SDS-PAGE); format: biochemical; conditions: 60 minutes
Procedure: As an example of the enzymatic activity of the 8-fold mutant we tested the hydrolysis of protease resistant α-amylase from Bacillus licheniformis by the 8-fold mutant. B. licheniformis α-amylase (1 mg/ml) in 50 mM MOPS, pH 7.0, 5 mM CaCl2, 0.01% Triton X-100 was incubated with purified TLP-ste (1 μg/ml), the 8-fold mutant or without protease for 60 minutes at the temperature indicated. The reaction volume was 500 μL. […] Precipitates (only observed in the 100° C. samples) were collected by centrifugation and redissolved in 500 μL 6 M Urea. Both supernatants and redissolved precipitates were subjected to standard SDS-PAGE, including pre-treatment with sample loading buffer (5 minutes at 100° C.). The samples were identical in size (20 μL supernatant and 20 μL dissolved precipitate). Gels were stained with Coomassie-brilliant blue.

[5] = enzyme 0.05% v/v, pH 7.0, 90° C.

B1: 8-fold mutant: TLP-ste with A4T, T56A, G58A, T63F, S65P, A69P and a disulfide bridge G8C-N60C (protein)
chain: VAGTSTVCVGRGVLGDQKYINTTYSSYYGYYYLQDNTRGSGIFTYDGRNRTVLPGSLWADADCQFFAPYDAPAVDAHYYAGVVYDYYKNVHGRLSYDGSNAAIRSTVHYGRGYNNAFWNGSQMVYGDGDGQTFLPFSGGIDVVGHELTHAVTDYTAGLVYQNESGAINEAMSDIFGTLVEFYANRNPDWEIGEDIYTPGVAGDALRSMSDPAKYGDPDHYSKRYTGTQDNGGVHTNSGIINKAAYLLSQGGVHYGVSVNGIGRDKMGKIFYRALVYYLTPTSNFSQLRAACVQAAADLYGSTSQEVNSVKQAFNAVGVY
half life at 100° C. [1]: ~3 h
half-life at 100° C. relative to the wild-type [1]: more than 1000 times
half-life 80° C. ([1]; buffer, pH 5.3): stable
half-life 90° C. ([1]; buffer, pH 5.3): stable
half-life 100° C. ([1]; buffer, pH 5.3): 2.83 h
range of hydrolysis products (SDS-PAGE) versus the other enzymes (casein): much broader range of hydrolysis products
rate of hydrolysis and acid-soluble protein products versus the other enzyme preparations (casein; [5]): more rapidly and that more acid-soluble protein products are produced
activity and stability in the presence of high concentrations of denaturing agents [2]: active and stable
relative activity ([2]; GndHCl 0 M): 100%
relative activity ([2]; GndHCl 1.0 M): 95%
relative activity ([2]; GndHCl 2.0 M): 83%
relative activity ([2]; GndHCl 3.0 M): 68%
relative activity ([2]; GndHCl 4.0 M): 50%
relative activity ([2]; GndHCl 5.0 M): 40%
relative activity ([2]; GndHCl 5.5 M): 15%
relative activity ([2]; GndHCl 6.0 M): 0%
relative activity ([2]; SDS 0 % w/v): 100%
relative activity ([2]; SDS 0.25 % w/v): 94%
relative activity ([2]; SDS 0.5 % w/v): 81%
relative activity ([2]; SDS 0.75 % w/v): 57%
relative activity ([2]; SDS 1.0 % w/v): 40%
relative activity ([2]; SDS 1.25 % w/v): 29%
relative activity ([2]; SDS 1.5 % w/v): 22%
relative activity ([2]; SDS 2.0 % w/v): 0%
relative activity ([2]; Urea 0 M): 100%
relative activity ([2]; Urea 0.5 M): 97%
relative activity ([2]; Urea 1.0 M): 91%
relative activity ([2]; Urea 2.0 M): 93%
relative activity ([2]; Urea 3.0 M): 86%
relative activity ([2]; Urea 4.0 M): 72%
relative activity ([2]; Urea 5.0 M): 63%
relative activity ([2]; Urea 7.5 M): 35%
cleavage specificity, effect of the stabilizing mutations (β-Casein): largely unaffected
range of hydrolysis products (SDS-PAGE) versus the other enzymes [3]: much broader range of hydrolysis products
rate of hydrolysis and acid-soluble protein products versus the other enzyme preparations [3, 5]: more rapidly and that more acid-soluble protein products are produced
degradation of B. licheniformis α-amylase ([4]; 80° C. and lower): No significant degradation
hydrolysis of B. licheniformis α-amylase ([4]; 100° C.): completely hydrolysed
